Laboratory results reported in the nanobody polyreactivity screen of Harvey et al. (2022).

Assay: yeast display, Sf9 membrane polyspecificity reagent, FACS + sequencing; frameworks hold sequencing errors
Procedure, shortened: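 Nanobodies came from a synthetic yeast display library in Saccharomyces cerevisiae BJ5465, induced with galactose for 36–48 hours and stained for 1 hour at 4 °C with 10% biotinylated, detergent-solubilized Sf9 membrane reagent. Cells were enriched on streptavidin microbeads and then FACS-sorted, with low and high (top ~1%) gates set on anti-HA fluorescence for expression and streptavidin fluorescence for reagent binding. Each polyreactivity label reflects the gate a clone came from. Genes were amplified by colony PCR, sequenced by MiSeq 2 × 250 and filtered by CDR length.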

| Sequence | polyreactivity (PSR sort gate) |
| --- | --- |
| QVQLVESGGGLVQAGGSLRLSCAASGFTFRQNAMGWYRQAPGKERELVAAISYSGGRTYYADSVKGRFTISRDNEMNTVYLQMNRLKPEDTAVYYCAVTYGIDYGYEYWGQGTQVTVSS | high polyreactivity |
| QVQLVESGGGLVQAGGSLRLICAASGRIFRRNVMGWYRQAPGKDRELVAAIRGTGSTTYADSVKGRFTISRDNAKNTVYLQMNSLKPEDTAVYYCNAYKGQTGGGGRYGYWGQGTQVTVSS | high polyreactivity |
| QVQLVESGGGLVQAGGSLRLSCPASGSTISGNTMGWYRHDPGKERELVAAISFRSGRTYYADSVKGRFTISRDNAKNTGYLQMNSLIPEDTAVYYCNAEIYTYRTGRGYSRMDYWGQGSQVTVSS | high polyreactivity |
| QVQLVESGGGLVQAGGSLRLSCAASGGIFRPYAMGWYRQSPGKEREMVAAITYNGGSTYYADSVKGRFTISRDNAKNTVYLQMNSLKPEDTGVYYCAARARSSRTYHDDYWGQGTQVTVSS | high polyreactivity |
| QVQLVESGGGLVQAGGSLRLSCAASGLIFTAYAMGWYRQAPGKERELVAAIDWRGGSTSYADSVKGRFTISRDNAKNTVYLQMNSLKPEDTAVYYCAADYYSKYVRFGYWGQGTQVTVSS | high polyreactivity |
| QVQLVESGGRLVQAGGSLRLSCAASGSTFARNAMGWYRQAPGKERELVAAISSSGGRTYYADSVKGRFTISRDNAKNTVYLQMNSLKPEDTAVYYCAAAFSLGMYWGQGTQVTVSS | high polyreactivity |
| QVQLVESGGGLVQAGGSLRLSCAASGRIFGPYTMGWYRQAPGKERELVAAINGRGGSTYYADSVKGRFTISRDNAKNTVYLQMNSLKPEDTAVYYFNASPTWVYSRVYGYNYWGQGTQVTVSS | low polyreactivity |
| QVQLVESGGGLVQAGGSLRLSCAASGITLSIYAMGWYRQAPGKERELVAAINGNGGSTYYADSVKGRFTISRDNAKNTVYLQMNSLKPEDTAVYYCAVTDYVYEHDDYWGQGTEVTVSS | low polyreactivity |
| QVQLVESGGGLVQAGGSLRLSCAASGITFLHYAMGWYRQAPGKERELVARITYSGSSTYYADSVKGRFTISRDNAKNTVYLQMNSVKPEDTAVYYCNARASWGRWSRTGTPRYDYWGQGTQVTVSS | high polyreactivity |
| QVQLVESGGGLVQAGGSLRLSCAASGNTFYRNAMGWSRQAPGKERELVAAIDYSAGSTYYADSVKGRFTISRDNAKNTVYLQMNSLKPEDTAVYYCAADARTSRGRRYYYWGQGTQVTVSS | low polyreactivity |
| QVQLVESGGGLVQAGGSLRLSCASSGRTFVWNAMGWYRQAPGKERELVAAIDWSGGSTYYADSVKGRFTISRDYAKITVYLQMNSLKPEDTAVYYCAKEYWYRALWYNYWGQGTQVTVSS | high polyreactivity |
| QVQLVETGGGLVQAGGRLRLSCAASGSTFKNNAMGWSRQAPGKEREFVAGITRRGTSTYYADSVKGRFTISRDNAKNTVYLQMNSLKPEDTAVYYCNARLRARSTIKLDYWGQGTQVTVSS | high polyreactivity |
| QVQLVESGGGLVQAGGSLRISCAASGNIFYRNGMGWYRQAPGKEREFVAAISRRGGSTYYADSVKGRFTISRDNAKNTVYLQMNSLKTEDTAVYYCATRYWPTNKGEYWGQGTQLTVSS | high polyreactivity |
| QVQLVESGGGLVQAGGSLRLSCAASGSIFYSYTMGWYRQAPGKEMELVAAINSGGSTYYADSVKGRFTISRDNAKNTVYLQMNSLKREDTAVYYCAARRTTSSGGYYYWGQGTQVTVSS | high polyreactivity |
| QDQLVESAGGLVQAGGSLRLSCAASGLTFWDYAMGWSRQAPGKERELVAGINTRGTSTYYADSVKGRFTISRDNAKNNVYLQMNSLKPEDTAVYYCAARVRSELIKRYYWGQGSQVTVSS | high polyreactivity |
| QFQLVESGGGLVQAGGSLRLSSAASGRTFLSYTMVWYRQAPGKERQFVAAITTSGGSTNYADSVKGRFTISRDNAKNTVYLQMNSLKAEDTAVYYCADEWSVYFYDPRSDYWGQGNQVTVSS | high polyreactivity |

| Sequence | polyreactivity (PSR sort gate) |
| --- | --- |
| QVQLVESGGGLVQAGGSLRLSCAASGRIFRRYAMGWYRQAPGKERELVAAISSGGGSTYYADSVKGRFTISRDNAKNTVYLQMNSLKPEDTAVYYCNTDFYYDDVSQAHDYWGQGTQVTVSS | high polyreactivity |
| QVQLVESGGGLVQAGGSVRLSCAASGSICFYAMGWYRQAPGKERELVAAISWRGGSTYYADSVKGRFTISRDNAKNTVYLQMNSLKPEDTAVYYCAKATRRYDVYTYGYWGQGTQVTVSS | high polyreactivity |
| QVQLEESGGGLVQAGGSLRLSCAASGSIFIYYAMGWYRQAPGKERELVAGINFNGGSTYYADSVKVRFTISRDNAKNTVYLQMNSLKPEDTAVYYCAADELWWTYWDFVTNWYQRDYWGQGTQVTVSS | low polyreactivity |
| QVQLVESGGGLVQAGGSLLLSCAASGSTFDDKAMGWYRQAPGKERELVAAISSDGSTNYADSVKGRFTISRDTAKNTVYLQMNCLKPADTAVYYCAAESPWDWGSWFEALYDYWGLGTQVTVSS | high polyreactivity |
| QVQLVESGGGIVQAGGSLRLSCAASGNIFGGYAMGWYRQAPGKERELVAAISQRGGITYYADSVKGRFTISRDNAKNTVYLQMNSLKPEDTAVFYCAKRGPYGWYGAYDYWGQGTQVTVSS | low polyreactivity |
| QVQLVESGGALVQAGGSLRLSCAASGFTLSAYAKGWYRQAPGKERELVAGISYTGGRTYYADSVKGRFTISRDNAKNTVYLQMNSLKPEDTAVYYCNKAWSGYYKYGYWGQGTQVTVSS | low polyreactivity |
| QVQLVESGGGLVQAGGSLRLSCAASGSTLATYTMGWYRQAPGKERELVAAISFGGSTYYADSVKGRFTISRDNAKNTVYLQMNRLKPEDTAVYYCAVYGDSYWGAYYYSDGYWGQGTQVTVSS | low polyreactivity |
| QVQLVESGGGLVQAGGSLLLSCAASGFTFSVYAMGWYRQEPGKERELVAAINFSGGNTFYADSVKGRFTISRDYAKNTVYLQMNSLKPEDSAVYYCAAEDYKITRYVVRWYEYWGQGTQVTVSS | high polyreactivity |
| QVQLVESGGGLVQAGGSLRLSCAASGRIFLHYAMGWYRQAPGKERELVAGITKSGSSTYYADSVKGRFTISRDNAKNTVYLQMNSLKPEDTAVYYCAARKIHHHVYGAWPRYGYWGQGTQVTVSS | high polyreactivity |
| QVQLVESGGGLVQAGGSLRLSCAASGRTFYLNAMGWYRQAPGKERELVATISYTGDTTYYADSVKGRFTISGDNALNTVYLQMNSLKPEDTAVYYCAALPSRPRGYDYWGQGTQVTVSS | high polyreactivity |
| QVQLVESGGGLVQAGGSLRLSCAASGRTFKLYAMGWYRQAPGKERELVAAISRSGGSTYYADSVKGRFTISRDNAKNTVYLQMNSLKPEDTAVYYCNRRQGYHGDYDYWGQGTQVTVSS | high polyreactivity |
| QVQLVESGGGLVQAGGSLRLSCAASGSTFAQNAMGWYRQAPGKERELVAAISRRGGSTYYADSVKGRFTISRDNAKNTVYLQMNSLKPEDTAVYYCAADQPVRQHHRDDYWGQGTQVTVSS | low polyreactivity |
| QFQLVESGGGLVQAGGSLRLSCAASGSTFIGYAMGWYRQAPGKERELVAAITGGGRTNYADSVKGRFTISRDNAKNTVYLQMNSLKPEDTAVYYCAARGVSRGYAKPYYSRGDYWGQGTQVTVSS | low polyreactivity |
| QVQLVESGGGLVHAGGCLRISCAASGRIFWYNEMGWYRQATGKERELVADITPRGTRTHYADSVKGRFTISRDNAKNTVYLQMNSLKPEDPGVYYCAKGWYTVDWDAPVFSERGEYWGQGSQVTVSS | low polyreactivity |
| QVQPVESGGGLVQAGGSLRLSCADSGSIIYYNAMGWYRQAPGKEREFVAAITSSGGSTYADSVKGRFTISRDNGKNTVYIQMNSMKPEDTAVYYCATVAHGLLSGSGYIYAYDYWGQGTQVTVSS | low polyreactivity |
